Assay results from article PMC13678254, “Exploring the bistable equilibrium of methylated CpG DNA recognition by the MBD2 protein”.

Molecular target: MBD2 MBD S189A (Homo sapiens, UniProt Q9UBB5 150-214, S189A)
Experiment: fluorescence polarization; 3 mM Mg2+; 10 nM DNA; FP: 10 mM HEPES pH 7.5, 50 mM NaCl, 3 mM MgCl2, 0.1 mM EDTA, 1 mM DTT, 0.02% sodium azide; 10 nM 3'FAM DNA; temperature not stated
Details: protein: recombinant; tags: thioredoxin/His tag (modified pET32a) removed by TEV protease; label: 3'FAM on forward strand; blunt

Sequence of MBD2 MBD S189A (Q9UBB5 150-214 S189A): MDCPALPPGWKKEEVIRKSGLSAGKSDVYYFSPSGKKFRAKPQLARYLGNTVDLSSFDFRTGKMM

B1: 17-bp symmetrically methylated mCpG DNA, 3'FAM (dsDNA)
DNA 1: GAGGCGCTCGGCGGCAG
DNA 2: CTGCCGCCGAGCGCCTC
modifications: 5-methylcytosine at position 9 of strand 1 and at position 8 of strand 2 (symmetric mCpG)
With B1 as the binder, how does the Kd read?
The Kd was 11.5 ± 0.6 µM.
